# Reference: publication PMC11621567 (Nature Communications, 2024)
# Read-outs that look alike come from different tables or passages of the source.
# B1: human GPR156 EM (residues 1–346), apo (receptor)
# chain: MEPEINCSELCDSFPGQELDRRPLHDLCKTTITSSHHSSKTISSLSPVLLGIVWTFLSCGLLLILFFLAFTIHCRKNRIVKMSSPNLNIVTLLGSCLTYSSAYLFGIQDVLVGSSMETLIQTRLSMLCIGTSLVFGPILGKSWRLYKVFTQRVPDKRVIIKDLQLLGLVAALLMADVILLMTWVLTDPIQCLQILSVSMTVTGKDVSCTSTSTHFCASRYSDVWIALIWGCKGLLLLYGAYLAGLTGHVSSPPVNQSLTIMVGVNLLVLAAGLLFVVTRYLHSWPNLVFGLTSGGIFVCTTTINCFIFIPQLKQWKAFEEENQTIRRMAKYFSTPNKSFHTQYGEE
# B2: human GPR156 EM (residues 1–346) in the GPR156–Gi3 complex (receptor)
# chain: B1 chain
# How the values were obtained:
# [1] = target: the molecule itself; assay: cryo-EM structure
# [2] = target: the molecule itself; assay: cryo-EM structure; remark: listed apart in the source
protein,measurement,setting,value
B1,stoichiometry N,[1],2
B2,stoichiometry N,[2],2
